Reference: patent publication US11857697B2, “Compositions and methods for obtaining 3-dimensional lung-like epithelium and related uses thereof” (THE REGENTS OF THE UNIVERSITY OF MICHIGAN, priority 2017, dated 2024)
“Also recorded” adds a separate entry of the source.

B1: Recombinant Human Fibroblast Growth Factor 10 (protein, UniProt O15520 38-208, looked up)
Fibroblast growth factor 10: QALGQDMVSPEATNSSSSSFSSPSSAGRHVRSYNHLQGDVRWRKLFSFTKYFLKIEKNGKVSGTKKENCPYSILEITSVEIGVVAVKAINSNYYLAMNKKGKLYGSKEFNNDCKLKERIEENGYNTYASFNWQHNGRQMYVALNGKGAPRRGQKTRRKNTSAHFLPMVVHS

Experiments:
[1] = tested on: 12 week human fetal distal epithelial lung buds; assay: Isolated human fetal lung bud culture in Matrigel: growth/expansion; assay type: cell-based; details: FGF10 500 ng/mL
From the text: All research utilizing human fetal tissue was approved by the University of Michigan institutional review board. Normal human fetal lungs were obtained from the University of Washington Laboratory of Developmental Biology, and epithelial lung buds were dissected as described below. All experiments were repeated using tissues from 3 individual lungs; 84 day post fertilization of unknown gender, 87 day post fertilization male, and 87 day post fertilization of unknown gender. All tissues were shipped in Belzer's solution at 4 degrees Celsius and were processed and in culture within 24 hours of isolation.
(§1) Isolated mouse buds were cultured in 4-6 μl droplets of matrigel, covered with media, and kept at 37 degrees Celsius with 5% Carbon Dioxide. Isolated human fetal lung buds were cultured in 25-50 μl droplets of matrigel, covered with media, and kept at 37 degrees Celsius with 5% Carbon Dioxide.
Distal regions of 12 week fetal lungs were cut into ˜2 mm sections and incubated with dispase, 100% FBS and then 10% FBS as described above, and moved to a sterile petri dish. Mesenchyme was removed by repeated pipetting of distal lung pieces after dispase treatment. Buds were washed with DMEM until mesenchymal cells were no longer visible in the media. Buds were then moved to a 1.5 mL eppendorf tube containing 200 uL of Matrigel, mixed using a p200 pipette, and plated in ˜20 uL droplets in a 24 well tissue culture plate. Plates were placed at 37 degrees Celsius with 5% CO2 for 20 minutes while droplets solidified. 500 uL of media was added to each well containing a droplet. Media was changed every 2-3 days.
All mouse bud, human fetal bud, and hPSC-derived human lung organoids were grown in low-serum basal media (basal media) with added growth factors. […]

[2] = tested on: E13.5 mouse distal epithelial lung buds; assay: Isolated E13.5 mouse distal lung bud culture in Matrigel droplet: growth/expansion; assay type: cell-based; details: FGF10 500 ng/mL (50-fold excess), up to 5 days
Description: as §1
Mouse buds were dissected from E13.5 embryos. For experiments using Sox9CreER; Rosa^Tomato/Tomato mice, 50 ug/g of tamoxifen was dissolved in corn oil and given by oral gavage on E12.5, 24 hours prior to dissection. Briefly, in sterile environment, whole lungs were placed in 100% dispase (Corning Cat#354235) on ice for 30 minutes. Lungs were then transferred using a 25 uL wiretrol tool (Drummond Scientific Cat#S5-000-2050) to 100% FBS (Corning Cat#35-010-CV) on ice for 15 minutes, and then transferred to a solution of Dulbecco's Modified Eagle Medium: Nutrient Mixture F12 (DMEM/F12, ThermoFisher SKU#12634-010) with 10% FBS and 1× Pennicillin-Streptomycin (ThermoFisher Cat#15140122) on ice. To dissect buds, a single lung or lung lobe was transferred by wiretrol within a droplet of media to a 100 mm sterile petri dish. Under a dissecting microscope, the mesenchyme was carefully removed and epithelial bud tips were torn away from the bronchial tree using tungsten needles (Point Technologies, Inc.). Care was taken to remove the trachea and any connective tissue from dissected lungs. Isolated bud tips were picked up using a p20 pipette and added to an eppendorf tube with cold Matrigel (Corning Ref#354248) on ice. The buds were picked up in a p20 pipette with 4-6 uL of Matrigel and plated on a 24-well tissue culture well (ThermoFisher Cat#142475). The plate was moved to a tissue culture incubator and incubated for 5 minutes at 37 degrees Celsius and 5% CO2 to allow the Matrigel droplet to solidify. 500 uL of media was then added to the dish in a laminar flow hood. Media was changed every 2-3 days.
All mouse bud, human fetal bud, and hPSC-derived human lung organoids were grown in low-serum basal media (basal media) with added growth factors. Basal media consisted of Dulbecco's Modified Eagle Medium: Nutrient Mixture F12 (DMEM/F12, ThermoFisher SKU#12634-010) supplemented with 1× N2 supplement (ThermoFisher Catalog#17502048) and […] B27 supplement (ThermoFisher Catalog#17504044), along with 2 mM Glutamax (ThermoFisher Catalog#35050061), 1× Pennicillin-Streptomycin (ThermoFisher Cat#15140122) and 0.05% Bovine Serum Albumin (BSA; Sigma product# A9647). BSA was weighed and dissolved in DMEM F/12 media before being passed through a SteriFlip 0.22 uM filter (Millipore Item# EW-29969-24) and being added to basal media. Media was stored at 4 degrees Celsius for up to 1 month. On the day of use, basal media was aliquoted and 50 ug/mL Ascorbic acid and 0.4 uM Monothioglycerol was added. […]

Molecule | Tissue expansion / cyst formation of bud tips ([1]; Y27632 10 uM) | Bud growth [2] | Growth of human fetal lung buds ([1]; compared to basal media)
C[C@@H](N)[C@H]1CC[C@H](C(=O)Nc2ccncc2)CC1 [Y27632, reference compound] | in combination with FGF10, but not alone, promoted growth of buds into larger cyst-like structures; also recorded: did not lead to tissue expansion |  | 
B1 |  | modest growth of buds | only modest growth; also recorded: expansion of the tissue was not robust
